The target of test [1] is SK-BR-3 cells (antigen not identified). Kind of test: saturation binding to cells by FACS, double-reciprocal plot; 'Rel. Affinity (nM)'; antigen on the cells not identified. (Flow cytometry measures light scatter and fluorescence of single cells or particles in a stream.)
For test [2], the target named is OVCAR-3 cells (antigen not identified). The test is described as above.
The target is the same in test [3]. The test can be described thus: immunohistochemistry on OVCAR3 cells.

Substitutions are numbered along the chain they refer to.

B1: 1250_I13 (antibody, V domains shown)
VH: QVQLQQWGAGLLKPSETLSLTCAVYGGSFSGYFWTWVRQLPGRGLEWIGEINHRGTSSYNPSLRSRLTISVDTSKNQFSLKLSSVTAADTAVYYCARITEAVGFTSFDYWGQGILVTVSS
VL: QSVLTQPPSMSAAPGQKVTISCSGSTSNIGSNYVSWYQQLPQRAPKLLIYDNDKRPSGIPDRFSGSKSGASATLDITGLQTGDEAYYYCGTWDSSLSRVFGGGTKLTVL
B1 yielded a Kd in test [1] of 1.1 nM.

B2: 1253_N12 (antibody, V domains shown)
VH: QVQLQQWGAGLVKPSETLSVTCAVYGGSFSGYFWTWIRQPPGRGLEWIGEINHRGSSSYNPSLRSRLSISVDTSKNQFSLKMRSVTAADTAVYYCARITEAVGVTSFDSWGQGVLVTVSS
VL: B1 VL with M10V, S31N, N52D, D75A
For the molecule B2, the Kd in test [1] is 1.1 nM.

B3: 1256_B2 (antibody, V domains shown)
VH: QVQLQQWGAGLLKPSETLSLTCAVYGGSFSGYFWSWIRQPPGRGLEWIGEINHRGSSTYKSSLKTRLTMSVDTSKNQFSIKLTSVTAADTAVYYCARITEAVGVTSFDSWGQGVLVTVSS
VL: B1 VL with M10V, S31N, K46R, D75G, S94N, S95N
In the case of B3, the Kd in test [1] stood at 1.2 nM.

B4: 1226_K16 (antibody, V domains shown)
VH: B1 VH with F29L, V37I, L40P, G55R, S57T, S58T, Y59S, V71L, F104V
VL: B1 VL with M10V, T19N, S31N, Y33F, S35A, D75G, T81S, S95T
B4 had a Kd in test [2] of 1.6 nM.

B5: 1242_P11 (antibody, V domains shown)
VH: QVQLTQWGAGLLKPSETLSLTCAVGGGSFSGYFWTWIRQSPGRGLEWIGEINHKGKTTYNPTLKSRLSILVDTFKNQFSLKLRSVVAADTAVYYCARIVEAVGVTSFDSWGQGILVTVSS
VL: B1 VL with M10V, S31N, Y33H, R43T, D53N, D75G, S94T, S95R
In test [2], B5 gave a dissociation constant Kd of 2 nM. The Kd values of the last two molecules are within 1.5-fold of each other.

B6: 1038_D5 (TCN-445) (antibody, V domains shown)
VH: QVQLVQSGAEVQKPGASMKVSCKASGYTFTDFYFHWVRQAPGQGLEWMGWINPRSGATNYAHKFRGRVTMTSDTSIKTIYMSLGWLRSGDTAVYYCARDMRRENGYNFDGTFDYWGQGTLVTVSS
VL: DIQMTQSPPSLSASVGDRVTITCQASQDIKNYLNWYQQKPGKAPKLLIYDASNLETGVPSRFSGSRSGTNFTFTINSLQPEDIATYFCQRYDAFPLTFGGGSKVEIK
With B6, the # Samples Staining Positive in test [3] was greater than 75%. Besides, the dissociation constant Kd in test [2] turned out to be 0.8 nM.

As a reminder, the Kd is the free concentration of one partner at which half of the binding sites on the other are occupied at equilibrium, for simple one-to-one binding. Read a high Kd as weaker binding.

For the origin of these results see US20110064743A1.
